Test results reported in paper PMC8826744.

Target: recombinant furin, biotinylated (UniProt P09958)
Test: BLI

Sequence of recombinant furin, biotinylated (P09958 27-794): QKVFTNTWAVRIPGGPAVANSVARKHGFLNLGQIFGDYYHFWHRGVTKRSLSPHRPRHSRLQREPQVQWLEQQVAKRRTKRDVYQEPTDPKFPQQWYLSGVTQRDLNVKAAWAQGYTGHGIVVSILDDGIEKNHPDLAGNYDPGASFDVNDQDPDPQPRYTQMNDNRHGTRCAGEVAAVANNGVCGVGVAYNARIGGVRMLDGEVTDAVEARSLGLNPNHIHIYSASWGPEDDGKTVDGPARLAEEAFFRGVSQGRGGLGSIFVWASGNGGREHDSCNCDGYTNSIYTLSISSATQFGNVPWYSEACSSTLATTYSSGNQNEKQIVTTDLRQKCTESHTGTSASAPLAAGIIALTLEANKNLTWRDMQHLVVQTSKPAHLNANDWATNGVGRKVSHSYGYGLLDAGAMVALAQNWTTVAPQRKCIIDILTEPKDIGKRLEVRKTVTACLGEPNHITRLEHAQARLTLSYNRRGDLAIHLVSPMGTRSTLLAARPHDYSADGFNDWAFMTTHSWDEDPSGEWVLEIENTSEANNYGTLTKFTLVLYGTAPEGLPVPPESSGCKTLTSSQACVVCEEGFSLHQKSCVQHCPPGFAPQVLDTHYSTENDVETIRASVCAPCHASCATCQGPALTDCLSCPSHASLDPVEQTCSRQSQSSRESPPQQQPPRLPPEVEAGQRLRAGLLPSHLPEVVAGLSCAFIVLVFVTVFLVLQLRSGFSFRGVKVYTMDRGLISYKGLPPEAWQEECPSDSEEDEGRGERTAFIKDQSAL

Substance farletuzumab-FuG1 (antibody) has a fold reduction of koff against farletuzumab-cFuG1 of 10 fold.
